B1: Kinesin-like protein KIF21A (Homo sapiens), Q7Z4S6 (parent)
chain: MLGAPDESSVRVAVRIRPQLAKEKIEGCHICTSVTPGEPQVFLGKDKAFTFDYVFDIDSQQEQIYIQCIEKLIEGCFEGYNATVFAYGQTGAGKTYTMGTGFDVNIVEEELGIISRAVKHLFKSIEEKKHIAIKNGLPAPDFKVNAQFLELYNEEVLDLFDTTRDIDAKSKKSNIRIHEDSTGGIYTVGVTTRTVNTESEMMQCLKLGALSRTTASTQMNVQSSRSHAIFTIHVCQTRVCPQIDADNATDNKIISESAQMNEFETLTAKFHFVDLAGSERLKRTGATGERAKEGISINCGLLALGNVISALGDKSKRATHVPYRDSKLTRLLQDSLGGNSQTIMIACVSPSDRDFMETLNTLKYANRARNIKNKVMVNQDRASQQINALRSEITRLQMELMEYKTGKRIIDEEGVESINDMFHENAMLQTENNNLRVRIKAMQETVDALRSRITQLVSDQANHVLARAGEGNEEISNMIHSYIKEIEDLRAKLLESEAVNENLRKNLTRATARAPYFSGSSTFSPTILSSDKETIEIIDLAKKDLEKLKRKEKRKKKRLQKLEESNREERSVAGKEDNTDTDQEKKEEKGVSERENNELEVEESQEVSDHEDEEEEEEEEEDDIDGGESSDESDSESDEKANYQADLANITCEIAIKQKLIDELENSQKRLQTLKKQYEEKLMMLQHKIRDTQLERDQVLQNLGSVESYSEEKAKKVRSEYEKKLQAMNKELQRLQAAQKEHARLLKNQSQYEKQLKKLQQDVMEMKKTKVRLMKQMKEEQEKARLTESRRNREIAQLKKDQRKRDHQLRLLEAQKRNQEVVLRRKTEEVTALRRQVRPMSDKVAGKVTRKLSSSDAPAQDTGSSAAAVETDASRTGAQQKMRIPVARVQALPTPATNGNRKKYQRKGLTGRVFISKTARMKWQLLERRVTDIIMQKMTISNMEADMNRLLKQREELTKRREKLSKRREKIVKENGEGDKNVANINEEMESLTANIDYINDSISDCQANIMQMEEAKEEGETLDVTAVINACTLTEARYLLDHFLSMGINKGLQAAQKEAQIKVLEGRLKQTEITSATQNQLLFHMLKEKAELNPELDALLGHALQDLDSVPLENVEDSTDEDAPLNSPGSEGSTLSSDLMKLCGEVKPKNKARRRTTTQMELLYADSSELASDTSTGDASLPGPLTPVAEGQEIGMNTETSGTSAREKELSPPPGLPSKIGSISRQSSLSEKKIPEPSPVTRRKAYEKAEKSKAKEQKHSDSGTSEASLSPPSSPPSRPRNELNVFNRLTVSQGNTSVQQDKSDESDSSLSEVHRSSRRGIINPFPASKGIRAFPLQCIHIAEGHTKAVLCVDSTDDLLFTGSKDRTCKVWNLVTGQEIMSLGGHPNNVVSVKYCNYTSLVFTVSTSYIKVWDIRDSAKCIRTLTSSGQVTLGDACSASTSRTVAIPSGENQINQIALNPTGTFLYAASGNAVRMWDLKRFQSTGKLTGHLGPVMCLTVDQISSGQDLIITGSKDHYIKMFDVTEGALGTVSPTHNFEPPHYDGIEALTIQGDNLFSGSRDNGIKKWDLTQKDLLQQVPNAHKDWVCALGVVPDHPVLLSGCRGGILKVWNMDTFMPVGEMKGHDSPINAICVNSTHIFTAADDRTVRIWKARNLQDGQISDTGDLGEDIASN
partner: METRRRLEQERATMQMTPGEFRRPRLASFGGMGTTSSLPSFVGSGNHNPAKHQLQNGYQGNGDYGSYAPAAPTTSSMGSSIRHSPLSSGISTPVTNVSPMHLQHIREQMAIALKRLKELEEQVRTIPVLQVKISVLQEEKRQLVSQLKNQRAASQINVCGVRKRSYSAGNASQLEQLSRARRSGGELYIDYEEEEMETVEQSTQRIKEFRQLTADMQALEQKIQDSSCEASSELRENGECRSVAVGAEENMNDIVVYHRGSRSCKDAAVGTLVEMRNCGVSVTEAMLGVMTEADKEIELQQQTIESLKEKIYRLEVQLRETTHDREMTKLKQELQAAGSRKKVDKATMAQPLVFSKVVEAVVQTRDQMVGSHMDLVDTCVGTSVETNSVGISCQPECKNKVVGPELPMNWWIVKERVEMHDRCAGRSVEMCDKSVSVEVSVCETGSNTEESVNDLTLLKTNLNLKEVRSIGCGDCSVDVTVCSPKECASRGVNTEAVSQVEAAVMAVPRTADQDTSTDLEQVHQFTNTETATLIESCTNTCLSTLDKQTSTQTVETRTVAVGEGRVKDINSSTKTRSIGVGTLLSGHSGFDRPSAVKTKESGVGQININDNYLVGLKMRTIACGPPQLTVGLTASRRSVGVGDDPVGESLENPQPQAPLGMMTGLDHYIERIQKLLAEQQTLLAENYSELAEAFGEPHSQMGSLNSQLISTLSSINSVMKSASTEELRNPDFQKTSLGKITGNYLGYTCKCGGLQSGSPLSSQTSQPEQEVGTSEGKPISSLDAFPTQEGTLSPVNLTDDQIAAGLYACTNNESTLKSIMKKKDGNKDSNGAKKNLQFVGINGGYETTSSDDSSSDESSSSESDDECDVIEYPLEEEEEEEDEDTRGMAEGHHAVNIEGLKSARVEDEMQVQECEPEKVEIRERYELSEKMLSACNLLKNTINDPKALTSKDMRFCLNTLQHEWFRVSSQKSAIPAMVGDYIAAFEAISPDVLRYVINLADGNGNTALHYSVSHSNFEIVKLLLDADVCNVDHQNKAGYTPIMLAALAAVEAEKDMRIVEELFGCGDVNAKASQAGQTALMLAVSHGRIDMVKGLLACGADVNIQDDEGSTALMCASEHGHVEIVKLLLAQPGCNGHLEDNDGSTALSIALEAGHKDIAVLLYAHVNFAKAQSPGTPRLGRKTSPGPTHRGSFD

Variants of: B1
Details: with KANK1, Q14678-2
With M947T the “effect of a mutation on the interaction” value was “increasing interaction”.
In the case of R954W, the “effect of a mutation on the interaction” value is reported as “increasing interaction”.

— IntAct's records for PubMed 19559006
